Experiment: yeast display, Sf9 membrane polyspecificity reagent, FACS + sequencing; frameworks hold sequencing errors
Outline: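 Polyreactivity labels are assigned by the sorting gate from which each nanobody was recovered. The gates were low and high (top ~1%), set on anti-HA fluorescence for expression and streptavidin fluorescence for reagent binding. Before sorting, galactose-induced (36–48 hours) yeast display cells were stained for 1 hour at 4 °C with 10% biotinylated, detergent-solubilized Sf9 membrane reagent.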

| Sequence | polyreactivity (PSR sort gate) |
| --- | --- |
| QVQLVESGGGLVQAGGSLRLSCAASGSIFDSYVMGWYRQAPGKERELVAAITYSGGSTYADSVKGRFTISRDNAKNTVYLQMNSLKPEDTAVYYCAADLSGGSRYDYWGQGTQVTVSS | low polyreactivity |
| QVQLVESGGGLVQAGGSHRLSCAASGSTFLINAMGWYRQAPGKERELVAAISRDGSTNYADSVKGRFTISRDNAKNTVYLQMNSLKPDDTAVYYCAADEQAYYVRRFDYWGEGTQVTVSS | low polyreactivity |
| RVQLVESGGGLVQAGGSLRLSCAASGRIFDNYVMGCYRQAPGKDRELLAAISSGGGTYYADSVKGRFTISRDNAMNTVYLQMNSLKPEDTAVYFCAKRRVYDRSFGRYDYWGQGTQVTGSS | low polyreactivity |
| QVQLVESGGGLVQAGGSLRLSCAASGGIFSCKAMGWYRQAPGKERELVAAITTRGGSTYYADSVKGRFTISRDNAKNSVYLQMNSLKPEDTAVYYCAAEGYEEFNWGQGTQVTVSS | low polyreactivity |
| QVQLVESGGGLVQAGGSLRLSCAASGSILYTYAMGWYRQAPGKERELVAAISRGGGSTYYADSVKGRFTISRDNAKNTVYLQMNSLKPEDTAVYYCAARKLTRGTGRDDEYWGQGTQVTVSS | high polyreactivity |
| QVQLVESGGGLVQAGGSLRLSCAASGSTFWYNAMGWYTQAPGKERELVAAITWTGDGTYYADSVKGRFTISRDNAKNTVYLQMNSLKPEDTAVYYCAAAYFQWSTSIVGLDAWYDYWGQGTQVTVSS | low polyreactivity |
| QVQLVESGGGLVQAGGSLRLSCAASGSIFRVYAMGWYRQAPGKEREFVAAITRRGTRTYYADSVKGRFTISRDNAKNTVYLQMNSLKPEDTAVYYCAAYFTEGLYEYWGQGTQVTLSS | low polyreactivity |
| QVQLVESGGGLVQAGGSLRLSCAASGITFYVYAMGGSRQAPGKERELVAAMTRSGGITSYADSVKGRFTISRDNAKNTGYLQMNSLKPEDTAVYYCAAERTNQHYHIQGVGYWGQGTQVTVSS | low polyreactivity |
| QVQLVESGGGLVQAGGSLRLSCAASGITFVAYAMGWYRQAPGKERELVAAISKSGGNTYYADSVKGRFTISRDNAKNTVYLQMNSLKPEDTAVYYCAAPRRYAWGQVNYWGQGTQVTVSS | high polyreactivity |
| QVQLVESGGGLVQAGGSLRLSCADSGSTFWLYAMGWYRQAPGKERELVASISSRGRSTYYADSVKGRFTISRDNAKNTVYLQMNSLKPEDTAVYYCAAKDIRYDDDYWGQGTQVTVSS | low polyreactivity |
| QVQLVESGGGLVQAGGSLRLSCAASGRTFRKYAMGWYRQATGKERELVAAISWSGGSTYYANSVKGRFTISGDNAKNTVYLQINSLNPEDTAVYFCAVDCHPEEYDYWGQGTQVTVSS | low polyreactivity |
| QVQLVESGGGIVQAGGSLRLSCAASGRIFGYYVMGWSRQAPGKESELVAAINYDGGSTYYADSVKGRFTISRDNAKNTVYLQMISLKPVDTAVYYWAAAIGNSEYGWRYDYWGQGTQVTVSS | low polyreactivity |
| QVQLVESGGGLVQAGGSLRLSCAASGTIFYDNDMGLYRQAPGKERELVAAISWSASDTYYADSVKGRFTISRDNAKNTVFLQMMSLKPEDTAVYYCNAEVYEWYVVYSALDYWGQVTQVTVSS | low polyreactivity |
| QVQLVESGGGLVQAGGSLRLSCADSGTTFVKYAMGWYRQAPGKERELVAAISSRGGRTYYADSVKGRFTISRDNAKNTVYLQMNSLKPEDTEVYYCNKGTRLDGEYEYWGHGTQVTVSS | high polyreactivity |
| QVQLVESGGGLVQAGGSLRLSCAPSGIISIFNVMGWYRQAPGKERELVASITGRGGSTFYADSVKGRFTISRDNAKNTVYLQMNSLKPEDTAVYYCATDTGYTYPVTGLYDYWGQGTQVTVSS | low polyreactivity |
| QEQLVESGGGLVQAGGSLRLSGAASGGIFGRYAMGGYRQAPGKEMELVAAISKRGGSTYYADSVKGRFTISRDNAKNTVYLQMNSLKPEETAFYYCNAAQSVELGYDYWGQGTQVTVSS | high polyreactivity |
| QVQLVESGGGLVQAGGSLRLSCAASGSIFWPNSMGWYRQAPGKERELVAAISWGTGSTYYADSVKGRFTISRDNAKNTVYLQMNSLKPEDTAVYYCAADGAYLDPYYDYWGQGTQVTVSS | low polyreactivity |
| QDQLVESGGGLVQAGGSLRLSCAASGFIFGGYAMGWYRQAPGKERELVAAISSSGGSTYYADSVKGRFTISRDNAKNTVYLQMNSLKPEDTAVYYCAKVGWSRRYYYWGQGTQVTVSS | high polyreactivity |
| QVQLVQSGGGLVQAGGSLSLSCAASGSTFSTYAMGWYRQAPGKERELVATISKSGGSTYYSDSVKGRFTISRDNAKNTVYLQMNSLKPEDTAVYYCNARYQSRYFIYDYWGQGTQVTVSS | high polyreactivity |
| QVQLVESGGGLVQAGGSLRLSCAASGFILIQYAMGWYRQAPGKERELVAAITWSDTSTNYADSVKGRFTISRDNAKNTVYLQMNSLKPEDTAVYYCNADLYGAQDRRLDYYAEGYWGQGTQVTVSS | low polyreactivity |
| QVQLVESGGGLVQAGGILRLSCAAYGFTFYSYSMGWYRQAPGKEREFVAAGSTYYADSVKGRFTISRDNAKNTVYLQMNSLKPEDTAVYYCAADPWIYVQSYGFWGQGTQVTVSS | low polyreactivity |
| QVQLVESGGGLVQAGGSLRLSCAASGSIFVENAMGWYRQAPGKERELVAAISSDASTNYADSVKGRFTISRDNAKNTVYLQMNSLKPEDTAVYSCAAGYNPHGQYDYWGQGTQVTVSS | low polyreactivity |

| Sequence | polyreactivity (PSR sort gate) |
| --- | --- |
| QVQLVESGGGLVQAGGSLRLSCAASGGIFDANAMGWYRQAPGKERELVAAISSGGITKYADSVKGRFTISRDNAKNTVYLQMNSLKPEDTAVYYCAASWYRYRFIRYDYWGQGTQVTVSS | high polyreactivity |
| QVQLVESGGGLVQAGGSLRLSCAASGFTFFGDYAMGWYRQAPGKERELVAAIDWSGGTTYYADSVKGRFTISRDNAKNTVYLQMNSLKPEDTAVYYCAKDYYSDGIYYEYWGQGTQVTVSS | high polyreactivity |
| QVQLVESGGGLVQAGGSLRLSCAASGRTFYSYAMGWYRQAPGKERELVAAINTSGGRTHYADSVKGRFTISRDNAKNTVYLQMNSLKPEDTAVYYCAAEVFRTRTWEYYYWGQGTQVTVSS | high polyreactivity |
| QVQLVESGGGLVQAGGSLRLSCAASGITLGYYAMGWYRQAPGKERELVAAISYRGGNTYYADSVKGRFTISRDNAKNTVYLQRNSLKPEDTAVYYCNADLGYESGWWSKYDYWGQGTQVTVSS | low polyreactivity |
| QVQLVESGGGLVQAGGSLRLSCAAAGRIFVQYDMGWYRQAAGKERELVAAIIDSGDITYYADSVKGRYTSSRDNAKNTVYLQMNSLKPEDTAVYDCAASAAYYGFYKSVTYDYWGQGTQVTVSS | low polyreactivity |
| QVQLVESGGGLVQAGGSLRLSCAASGSTFQRYAMGWYRQAPGKERELVAAISSRGGSTYYADSVKGRFTISRDNAKNTVYLQMNSLKPEDTAVYYCAALGHLRYDYWGQGTQVTVSS | high polyreactivity |
| QVQLVESGGGLVQAGGSLRLSCAASGRTFKYYTMGWYRQAPGKERELVAAISGSGSRTYYADSVKGRFTISRDNAKNTVYLQMNSLKPEDTAVYYCAARRRISSGYSGPPWIYGYWGQGTQVTVSS | high polyreactivity |
| QVQLVESGGGLVQAGGSLRLSCAASGRTFYVNAMGWYRQAPGKERELVARISSSGITYYADSVKGRFTISRDNAKNSVSLQMNSLKPEDTAVYYCAAGPWFYYWGLGTQVTVSS | low polyreactivity |
| QVQLVESGGGLVQAGGSLRLSCAASGFIITTYAMGWYRQAPGTEREVVAGISSSGGSTRYADSVKGRFTISRDNAKNTVYLQMNSLKPEDTAVYYCNVLRYRGYDYWGQGTQVTVSS | high polyreactivity |
| QVQLVESGGGLVQAGGSLRLSCAASGRLFSRNVMGWSRQAPGKERELVAAISSSGSTYADSVKGRFTISRDNEKNTVYLQMNSLKPEDTAVSYCAAVIYLWGQGTQVTVSS | high polyreactivity |
| QVQLVESGGGLVQAGGSLRLSCAASGFIFTIYAMGWYRQAPGKERELVAAITWNGGRTYYADSVKGRFTISRDNAKNTVYLQMNSLKAEDTAVYYCAARYGRAYDYWGQGTQVTVSS | high polyreactivity |
| QVQLVESGGGLVQAGGSLRLSCAASGRIFPFYAMGWYRQAPGKERELVAAISRGGSTKYADSVKGRFTISRDNAKNTVYLQMKSLKPEDTAVYYCAAAGYGGSVAAYYYWGQGTQVTVSS | high polyreactivity |
| QVQLVESGGGLVQSGGSLRLSCAASGFIFEAYAMGWYRQAPGKEMELVAAISSGGSTKYADSVKGRFTISRDNAKNSVYLQMNSLKPEDTAVYYCAKSSWTYGAYNYLGQGTQVTVSS | high polyreactivity |
| QVQLVESGGGLVQAGGSLRLSCAASGLIFSDNAMGWYRQAPGKEREFVASISDSGTTTYYADSVKGRFTISRDNAKNTVYLQMNSLKPEDTAVYDCNARPGQSGARFGYWGQGTQVTVSS | high polyreactivity |
| QVQLVESGGGLVQAGGSLRLSCAASGGTFSVYGMGWYRPAPGKERDLVAVINGTDGITYYADSVKARVTISRDNAKNTVYLQMNSLKPEDTAVYDCAKDSDFLAYHGLDHWGQGTLVTVSS | low polyreactivity |
| QVQLVESGGGLVQAGGSHRLSCAASGSTFEIYAMGWYRQAPGKERELVAAISSGGSTNYADSVKGRFTISRDNAKNSVYLQMNSLKPEDTAVYYCVYAIQFDYWGQGTQVTVSS | low polyreactivity |
| QVQLVESGGGLVQAGGSLRLSCAASGLIFYTYAMGWYRQAPGKERALVADINRSDGSTYYADSVKGRFTISRDNAKNTVYLQMNILKPEDTAVYYCAVVGPYYTRFGGRYYYWGQGTQVTVSS | low polyreactivity |
| QVQLVESGGGLVQAGGSLRLSCAASGLILGINAMGWYRQAPGKERELVAAISSSGGRTSYADSVKGRFTISRDNAKNTVYLQMNILKPEDTAVYYCAKRRTTYSHYDYWGQGTQVSVSS | low polyreactivity |
| QVQLVESGGGLVQAGGSLRLSCAASGITFGGNAMGWYRQAPGKERELVAAISGRGGRTYYADSVKGRFTISRDTAKNTVYLQMNSLKPEDTAVYYCAGGGRVRYDYWGQGTQVTVSS | low polyreactivity |
| QVQLVESGGGLVQAGGSLRLSCAASGRIFGSYAMGWYRQAPGKERELVAVITKRGDSTYYADSVKGRFTISRDNAKNTVYLQMNSLKPEDTAVYYCNAGRVYYSNGYDYWGQGSQVTVSS | low polyreactivity |
| QVQLVESGGGLVQAGGSLRLSCAASGRIFRSYAMGWYRQAPGKERELVAAMTWGGGRTYYADSVKGRFTISRDNAKNTVYLQMNSLKPEDTAVYYCNTLAYPYYRGSKYDYWGQGTQVTVSS | high polyreactivity |
